In patent US20130190477A1 (REGENTS OF THE UNIVERSITY OF COLORADO, published 2013):

How the values were obtained:
[1] = molecular target: T1, EBV gp350, truncated construct comprising residues 1-470 of the wild-type protein, C-terminal polyhistidine … (Epstein-Barr virus, UniProt P03200 1-470); assay: ITC, 20 °C, 1/3x PBS, single site binding model
T1 construct: range 1-470; Produced in Sf9 insect cells by baculovirus; The methods say truncated 1-470, yet the results and discussion call the titrated ligand 'full-length'; also called Epstein-Barr virus glycoprotein gp350/220; not shown: C-terminal polyhistidine tag
T1 sequence: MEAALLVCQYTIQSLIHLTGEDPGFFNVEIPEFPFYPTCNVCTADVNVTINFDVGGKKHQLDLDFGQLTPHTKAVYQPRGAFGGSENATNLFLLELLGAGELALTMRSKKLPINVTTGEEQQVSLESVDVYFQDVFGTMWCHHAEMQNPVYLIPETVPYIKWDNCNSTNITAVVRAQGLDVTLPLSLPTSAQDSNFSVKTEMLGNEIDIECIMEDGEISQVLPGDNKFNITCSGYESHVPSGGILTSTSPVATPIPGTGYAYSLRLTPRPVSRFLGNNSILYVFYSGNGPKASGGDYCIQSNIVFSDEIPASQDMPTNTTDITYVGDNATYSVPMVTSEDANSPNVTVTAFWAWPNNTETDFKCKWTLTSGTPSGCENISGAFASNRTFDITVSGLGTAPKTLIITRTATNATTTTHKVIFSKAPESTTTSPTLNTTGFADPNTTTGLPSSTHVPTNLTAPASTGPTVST

Human C3d [2] = molecular target: T2, Human C3d (human, UniProt P01024 996-1303, limits assumed); assay: ITC, 20 °C, 1/3x PBS, two site binding model (weak site)
T2 construct: domain: C3d; also called complement component 3 proteolytic fragment C3d
T2 sequence (P01024 996-1303 limits assumed): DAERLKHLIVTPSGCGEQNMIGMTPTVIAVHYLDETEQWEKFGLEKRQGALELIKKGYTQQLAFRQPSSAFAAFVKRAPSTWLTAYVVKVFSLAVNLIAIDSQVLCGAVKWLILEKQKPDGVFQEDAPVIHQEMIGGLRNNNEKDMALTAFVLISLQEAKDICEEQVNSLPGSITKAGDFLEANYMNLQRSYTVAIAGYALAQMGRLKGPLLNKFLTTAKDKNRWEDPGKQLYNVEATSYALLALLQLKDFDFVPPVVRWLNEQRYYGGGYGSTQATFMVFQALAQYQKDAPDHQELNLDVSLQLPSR
Procedure: (§1) ITC experiments were carried out on a Microcal VP-ITC (GE Healthcare, Piscataway, N.J.) housed in the Biophysics Core facility on the UCDSOM campus. […] Data was analyzed using the software provided by the manufacturer (Origin, version 7.0 MicroCal) using either single site or two site binding models (55).

Human C3d [3] = molecular target: T2, Human C3d; assay: ITC, 20 °C, 1/3x PBS, two site binding model (tight site)
Procedure: as §1

[4] = molecular target: T1, EBV gp350, truncated construct …; assay: NMR titration, upper limit from slow exchange (min. shift difference about 60 Hz, diffusion-limited on rate assumed)

B1: Human CR2 SCR1-2 (short consensus repeat domains 1 and 2 of human complement receptor 2) (receptor)
chain: ISCGSPPPILNGRISYYSTPIAVGTVIRYSCSGTFRLIGEKSLLCITKDKVDGTWDKPAPKCEYFNKYSSCPEPIVPGGYKIRGSTPYRHGDSVTFACKTNFSMNGNKSVWCQANNMWGPTRLPTCVS
notes: The ITC paragraph says only 'CR2 SCR1-2', so it is not clear which preparation gave the ITC values; also called CR2/CD21 SCR1-2; SCR1-2 domains of CR2
Kd [1]: 14 nM | Kd (Human C3d [2]): 160000 nM | Kd (Human C3d [3]): 130 nM | Kd [4]: ≤ 60000 nM
